In US20030166014A1 (CURATORS OF THE UNIVERSITY OF MISSOURI, published 2003):

Experiments:
[1] = molecular target: T1, Maackia amurensis lectin (MAL) (Maackia amurensis); assay: lectin ELISA; slope of absorbance at 405 nm against ng Hp
T1 construct: Used at 10 µg/ml in the lectin ELISA

[2] = molecular target: T2, Lotus tetragonolobus lectin (LTL) (Lotus tetragonolobus, UniProt P19664 1-240); assay: as above
T2 construct: Used at 2 µg/ml in the lectin ELISA
T2 sequence (looked up): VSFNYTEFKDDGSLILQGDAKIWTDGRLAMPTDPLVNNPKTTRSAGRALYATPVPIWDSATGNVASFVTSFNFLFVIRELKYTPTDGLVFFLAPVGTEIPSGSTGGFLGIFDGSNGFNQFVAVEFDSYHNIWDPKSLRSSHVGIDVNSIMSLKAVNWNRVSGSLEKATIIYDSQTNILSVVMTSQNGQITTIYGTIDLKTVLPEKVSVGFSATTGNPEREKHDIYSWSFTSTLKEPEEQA

T1 sequence (P0DKL3 30-278): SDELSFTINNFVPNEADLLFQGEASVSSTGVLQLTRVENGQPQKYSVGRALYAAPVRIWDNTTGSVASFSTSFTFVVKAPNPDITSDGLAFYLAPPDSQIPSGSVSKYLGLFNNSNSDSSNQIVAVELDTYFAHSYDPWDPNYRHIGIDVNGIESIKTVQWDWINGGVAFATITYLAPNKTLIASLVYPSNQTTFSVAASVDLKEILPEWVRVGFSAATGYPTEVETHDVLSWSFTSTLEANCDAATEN

B1: endometriosis-associated peritoneal endometriotic haptoglobin (pHp) (other, human)
chain 1: VDSGNDVTDIADDGCPKPPEIAHGYVEHSVRYQCKNYYKLRTEGDGVYTLNDKKQWINKAVGDKLPECEADDGCPKPPEIAHGYVEHSVRYQCKNYYKLRTEGDGVYTLNNEKQWINKAVGDKLPECEAVCGKPKNPANPVQ
chain 2: ILGGHLDAKGSFPWQAKMVSHHNLTTGATLINEQWLLTTAKNLFLNHSENATAKDIAPTLTLYVGKKQLVEIEKVVLHPNYSQVDIGLIKLKQKVSVNERVMPICLPSKDYAEVGRVGYVSGWGRNANFKFTDHLKYVMLPVADQDQCIRHYEGSTVPEKKTPKSPVGVQPILNEHTFCAGMSKYQEDTCYGDAGSAFAVHDLEEDTWYATGILSFDKSCAVAEYGVYVKVTSIQDWVQKTIAEN
modifications: N-glycosylated; 3 kDa less carbohydrate than sHp beta-chain; more alpha(2-3) sialic acid and fucose than sHp
notes: domain: α-subunit;domain: β-subunit; also called peritoneal endometriotic Hp
fold binding relative to sHp [1]: 10 times (vs sHp)
fold binding relative to sHp [2]: 11 times (vs sHp)
